This assay has as its target B/NP_TAIL mut1-YFP, B/NP_TAIL-YFP with point mutations in the positive charge patch of the NLS (influenza B virus B/Memphis/13/03). Put plainly: SPR.

Chain of human importin-α5 without its importin-β binding (IBB) domain (residues 66 to 538) (P52294 66-538): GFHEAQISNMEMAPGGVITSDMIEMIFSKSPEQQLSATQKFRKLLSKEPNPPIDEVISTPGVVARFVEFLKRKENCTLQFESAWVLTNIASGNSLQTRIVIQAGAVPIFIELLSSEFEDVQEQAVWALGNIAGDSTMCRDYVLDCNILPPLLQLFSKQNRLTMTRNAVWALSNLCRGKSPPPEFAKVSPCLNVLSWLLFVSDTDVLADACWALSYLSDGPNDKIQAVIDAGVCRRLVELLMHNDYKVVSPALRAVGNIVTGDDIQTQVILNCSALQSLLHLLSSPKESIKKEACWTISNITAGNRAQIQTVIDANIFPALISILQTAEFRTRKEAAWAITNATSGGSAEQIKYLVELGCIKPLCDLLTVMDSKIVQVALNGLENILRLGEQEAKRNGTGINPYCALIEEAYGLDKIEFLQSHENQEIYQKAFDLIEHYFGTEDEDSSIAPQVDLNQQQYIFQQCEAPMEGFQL
Chain of human importin-α7 without its importin-β binding (IBB) domain (residues 58 to 536) (O60684 58-536): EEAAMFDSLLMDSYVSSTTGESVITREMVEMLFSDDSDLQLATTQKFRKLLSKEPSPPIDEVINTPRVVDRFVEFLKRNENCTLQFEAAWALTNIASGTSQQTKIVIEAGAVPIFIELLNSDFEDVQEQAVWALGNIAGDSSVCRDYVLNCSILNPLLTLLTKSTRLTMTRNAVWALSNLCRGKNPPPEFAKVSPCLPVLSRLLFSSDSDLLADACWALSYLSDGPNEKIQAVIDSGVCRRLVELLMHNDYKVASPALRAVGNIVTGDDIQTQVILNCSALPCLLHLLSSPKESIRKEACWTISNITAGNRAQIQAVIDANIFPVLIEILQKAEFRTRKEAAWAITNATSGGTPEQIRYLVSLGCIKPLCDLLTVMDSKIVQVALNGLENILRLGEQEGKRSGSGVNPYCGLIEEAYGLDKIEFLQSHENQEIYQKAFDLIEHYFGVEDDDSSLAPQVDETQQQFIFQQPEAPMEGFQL
Chain of human importin-α3 without its importin-β binding (IBB) domain (residues 64 to 521) (O00629 64-521): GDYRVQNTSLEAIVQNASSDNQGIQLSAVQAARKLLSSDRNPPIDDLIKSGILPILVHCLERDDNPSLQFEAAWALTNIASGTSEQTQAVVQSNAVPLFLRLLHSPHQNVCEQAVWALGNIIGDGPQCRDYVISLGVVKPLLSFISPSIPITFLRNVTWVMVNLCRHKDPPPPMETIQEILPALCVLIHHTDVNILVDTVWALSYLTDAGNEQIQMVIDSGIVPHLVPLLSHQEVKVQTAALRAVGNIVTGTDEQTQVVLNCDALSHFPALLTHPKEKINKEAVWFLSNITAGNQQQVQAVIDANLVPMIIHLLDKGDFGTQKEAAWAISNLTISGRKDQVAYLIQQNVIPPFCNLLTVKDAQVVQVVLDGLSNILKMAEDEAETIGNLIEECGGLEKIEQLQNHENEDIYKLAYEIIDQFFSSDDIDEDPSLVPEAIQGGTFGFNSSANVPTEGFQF

“human importin-α3 without its importin-β binding (IBB) domain (residues 64 to 521) (from UniProt O00629 64-521) (domain or fragment)”: the Kd (usually the constant that tells how readily two partners part at equilibrium) is more than 5 µM.

Substance “human importin-α5 without its importin-β binding (IBB) domain (residues 66 to 538) (from UniProt P52294 66-538) (domain or fragment)” had a dissociation constant (Kd) of more than 5 µM.

For the substance “human importin-α7 without its importin-β binding (IBB) domain (residues 58 to 536) (from UniProt O60684 58-536) (domain or fragment)”, the Kd is more than 5 µM.

The values above are taken from article PMC7472415 (Viruses, 2020).
